Laboratory results as given in patent US10058586B2, “Use of human small leucine zipper protein in adipocyte differentiation procedure” (Korea University Research and Business Foundation, priority 2013, dated 2018).

Test system: HDAC3
Experiment: GST pull-down of GST-HDAC3 and Flag-sLZIP in 293T cells
Format: binding
Procedure: 293T cells were obtained and washed with cold PBS. The cells were re-suspended in an IP lysis buffer [25 mM of Tris-HCl (pH 7.4), 150 mM of NaCl, 1 mM of EDTA, 1% NP-40 and 5% glycerol, and a protease inhibitor]. A suspension was centrifuged at 16,000×g for 20 minutes at 4° C. Supernatants were collected and incubated with 0.5 μg of appropriate antibodies and 25 μl of protein A/G-agarose or a GST Sepharose 4B bead for 24 hours at 4° C. A protein complex was centrifuged at 1,000×g with a cold IP lysis buffer for 1 minute and washed five times. The final pellet was re-suspended in 50 μl of an SDS-sample buffer containing 5% β-mercaptoethanol and heated for 10 minutes at 100° C. […] Co-precipitated proteins were detected according to western blotting using specific antibodies.
For this purpose, 293T cells were transiently transfected with PPARγ2 (0.5 μg), (3-galactosidase (0.1 μg), FABP4-Luc reporter genes (0.2 μg) and sLZIP (0.1 μg). After the transfection, the cells were stimulated with or without 10 nM of RZD and 10 nM of TSA (FIG. 4A). A promoter activity was measured according to luciferase analysis. In the 293T cells, FABP4-Luc reporter genes, sLZIP, PPAR, β-galactosidase, and 100 nM of si-RNAs and HDAC1, 2, 3 and 8 for a control group were expressed. After the transfection, the cells were stimulated with or without 10 nM of RZD, and a promoter activity was measured (FIG. 4B). […]

B1: sLZIP: human small leucine-zipper protein, isoform of LZIP, 354 amino acids, no transmembrane domain; GenBank FJ263669, SEQ ID NO: 1 (protein, listed as Homo sapiens)
chain: MELELDAGDQDLLAFLLEESGDLGTAPDEAVRAPLDWALPLSEVPSDWEVDDLLCSLLSPPASLNILSSSNPCLVHHDHTYSLPRETVSMDLESESCRKEGTQMTPQHMEELAEQEIARLVLTDEEKSLLEKEGLILPETLPLTKTEEQILKRVRRKIRNKRSAQESRRKKKVYVGGLESRVLKYTAQNMELQNKVQLLEEQNLSLLDQLRKLQAMVIEISNKTSSSSMYSSDTRGSLPAEHGVLSRQLRALPSEDPYQLELPALQSEVPKDSTHQWLDGSDCVLQAPGNTSCLLHYMPQAPSAEPPLEWPFPDLFSEPLCRGPILPLQANLTRKGGWLPTGSPSVILQDRYSG
**Q.** Which “interaction with HDAC3 (GST pull-down)” value (10 nM RZD for 24 hours) does the source give for B1 here?
**A.** HDAC3 was remained as being interacted with sLZIP

**Q.** What about the “interaction with HDAC3 (GST pull-down)” value (no RZD) of the same molecule?
**A.** interacted with HDAC3 in a PPARγ2 corepressor complex
